# From IntAct's records for PubMed 30126976
# B1: Cysteinyl leukotriene receptor 2 (Homo sapiens), Q9NS75 (parent)
# chain: MERKFMSLQPSISVSEMEPNGTFSNNNSRNCTIENFKREFFPIVYLIIFFWGVLGNGLSIYVFLQPYKKSTSVNVFMLNLAISDLLFISTLPFRADYYLRGSNWIFGDLACRIMSYSLYVNMYSSIYFLTVLSVVRFLAMVHPFRLLHVTSIRSAWILCGIIWILIMASSIMLLDSGSEQNGSVTSCLELNLYKIAKLQTMNYIALVVGCLLPFFTLSICYLLIIRVLLKVEVPESGLRVSHRKALTTIIITLIIFFLCFLPYHTLRTVHLTTWKVGLCKDRLHKALVITLALAAANACFNPLLYYFAGENFKDRLKSALRKGHPQKAKTKCVFPVSVWLRKETRV
# B2: Prostaglandin D2 receptor (Homo sapiens), Q13258 (parent)
# chain: MKSPFYRCQNTTSVEKGNSAVMGGVLFSTGLLGNLLALGLLARSGLGWCSRRPLRPLPSVFYMLVCGLTVTDLLGKCLLSPVVLAAYAQNRSLRVLAPALDNSLCQAFAFFMSFFGLSSTLQLLAMALECWLSLGHPFFYRRHITLRLGALVAPVVSAFSLAFCALPFMGFGKFVQYCPGTWCFIQMVHEEGSLSVLGYSVLYSSLMALLVLATVLCNLGAMRNLYAMHRRLQRHPRSCTRDCAEPRADGREASPQPLEELDHLLLLALMTVLFTMCSLPVIYRAYYGAFKDVKEKNRTSEEAEDLRALRFLSVISIVDPWIFIIFRSPVFRIFFHKIFIRPLRYRSRCSNSTNMESSL
# B3: 5-hydroxytryptamine receptor 2C (Homo sapiens), P28335 (parent)
# chain: MVNLRNAVHSFLVHLIGLLVWQSDISVSPVAAIVTDIFNTSDGGRFKFPDGVQNWPALSIVIIIIMTIGGNILVIMAVSMEKKLHNATNYFLMSLAIADMLVGLLVMPLSLLAILYDYVWPLPRYLCPVWISLDVLFSTASIMHLCAISLDRYVAIRNPIEHSRFNSRTKAIMKIAIVWAISIGVSVPIPVIGLRDEEKVFVNNTTCVLNDPNFVLIGSFVAFFIPLTIMVITYCLTIYVLRRQALMLLHGHTEEPPGLSLDFLKCCKRNTAEEENSANPNQDQNARRRKKKERRPRGTMQAINNERKASKVLGIVFFVFLIMWCPFFITNILSVLCEKSCNQKLMEKLLNVFVWIGYVCSGINPLVYTLFNKIYRRAFSNYLRCNYKVEKKPPVRQIPRVAATALSGRELNVNIYRHTNEPVIEKASDNEPGIEMQVENLELPVNPSSVVSERISSV
# B4: Vang-like protein 1 (Homo sapiens), Q8TAA9 (parent)
# chain: MDTESTYSGYSYYSSHSKKSHRQGERTRERHKSPRNKDGRGSEKSVTIQPPTGEPLLGNDSTRTEEVQDDNWGETTTAITGTSEHSISQEDIARISKDMEDSVGLDCKRYLGLTVASFLGLLVFLTPIAFILLPPILWRDELEPCGTICEGLFISMAFKLLILLIGTWALFFRKRRADMPRVFVFRALLLVLIFLFVVSYWLFYGVRILDSRDRNYQGIVQYAVSLVDALLFIHYLAIVLLELRQLQPMFTLQVVRSTDGESRFYSLGHLSIQRAALVVLENYYKDFTIYNPNLLTASKFRAAKHMAGLKVYNVDGPSNNATGQSRAMIAAAARRRDSSHNELYYEEAEHERRVKKRKARLVVAVEEAFIHIQRLQAEEQQKAPGEVMDPREAAQAIFPSMARALQKYLRITRQQNYHSMESILQHLAFCITNGMTPKAFLERYLSAGPTLQYDKDRWLSTQWRLVSDEAVTNGLRDGIVFVLKCLDFSLVVNVKKIPFIILSEEFIDPKSHKFVLRLQSETSV
# B5: Sodium bicarbonate cotransporter 3 (Homo sapiens), Q9Y6M7 (parent)
# chain: MERFRLEKKLPGPDEEAVVDLGKTSSTVNTKFEKEELESHRAVYIGVHVPFSKESRRRHRHRGHKHHHRRRKDKESDKEDGRESPSYDTPSQRVQFILGTEDDDEEHIPHDLFTEMDELCYRDGEEYEWKETARWLKFEEDVEDGGDRWSKPYVATLSLHSLFELRSCILNGTVMLDMRASTLDEIADMVLDNMIASGQLDESIRENVREALLKRHHHQNEKRFTSRIPLVRSFADIGKKHSDPHLLERNGEGLSASRHSLRTGLSASNLSLRGESPLSLLLGHLLPSSRAGTPAGSRCTTPVPTPQNSPPSSPSISRLTSRSSQESQRQAPELLVSPASDDIPTVVIHPPEEDLEAALKGEEQKNEENVDLTPGILASPQSAPGNLDNSKSGEIKGNGSGGSRENSTVDFSKVDMNFMRKIPTGAEASNVLVGEVDFLERPIIAFVRLAPAVLLTGLTEVPVPTRFLFLLLGPAGKAPQYHEIGRSIATLMTDEIFHDVAYKAKDRNDLLSGIDEFLDQVTVLPPGEWDPSIRIEPPKSVPSQEKRKIPVFHNGSTPTLGETPKEAAHHAGPELQRTGRLFGGLILDIKRKAPFFLSDFKDALSLQCLASILFLYCACMSPVITFGGLLGEATEGRISAIESLFGASLTGIAYSLFAGQPLTILGSTGPVLVFEKILYKFCRDYQLSYLSLRTSIGLWTSFLCIVLVATDASSLVCYITRFTEEAFAALICIIFIYEALEKLFDLGETYAFNMHNNLDKLTSYSCVCTEPPNPSNETLAQWKKDNITAHNISWRNLTVSECKKLRGVFLGSACGHHGPYIPDVLFWCVILFFTTFFLSSFLKQFKTKRYFPTKVRSTISDFAVFLTIVIMVTIDYLVGVPSPKLHVPEKFEPTHPERGWIISPLGDNPWWTLLIAAIPALLCTILIFMDQQITAVIINRKEHKLKKGAGYHLDLLMVGVMLGVCSVMGLPWFVAATVLSISHVNSLKVESECSAPGEQPKFLGIREQRVTGLMIFILMGLSVFMTSVLKFIPMPVLYGVFLYMGVSSLKGIQLFDRIKLFGMPAKHQPDLIYLRYVPLWKVHIFTVIQLTCLVLLWVIKVSAAAVVFPMMVLALVFVRKLMDLCFTKRELSWLDDLMPESKKKKEDDKKKKEKEEAERMLQDDDDTVHLPFEGGSLLQIPVKALKYSPDKPVSVKISFEDEPRKKYVDAETSL
# B6: Monocarboxylate transporter 4 (Homo sapiens), O15427 (parent)
# chain: MGGAVVDEGPTGVKAPDGGWGWAVLFGCFVITGFSYAFPKAVSVFFKELIQEFGIGYSDTAWISSILLAMLYGTGPLCSVCVNRFGCRPVMLVGGLFASLGMVAASFCRSIIQVYLTTGVITGLGLALNFQPSLIMLNRYFSKRRPMANGLAAAGSPVFLCALSPLGQLLQDRYGWRGGFLILGGLLLNCCVCAALMRPLVVTAQPGSGPPRPSRRLLDLSVFRDRGFVLYAVAASVMVLGLFVPPVFVVSYAKDLGVPDTKAAFLLTILGFIDIFARPAAGFVAGLGKVRPYSVYLFSFSMFFNGLADLAGSTAGDYGGLVVFCIFFGISYGMVGALQFEVLMAIVGTHKFSSAIGLVLLMEAVAVLVGPPSGGKLLDATHVYMYVFILAGAEVLTSSLILLLGNFFCIRKKPKEPQPEVAAAEEEKLHKPPADSGVDLREVEHFLKAEPEKNGEVVHTPETSV
# B7: Plakophilin-4 (Homo sapiens), Q99569 (parent)
# chain: MPAPEQASLVEEGQPQTRQEAASTGPGMEPETTATTILASVKEQELQFQRLTRELEVERQIVASQLERCRLGAESPSIASTSSTEKSFPWRSTDVPNTGVSKPRVSDAVQPNNYLIRTEPEQGTLYSPEQTSLHESEGSLGNSRSSTQMNSYSDSGYQEAGSFHNSQNVSKADNRQQHSFIGSTNNHVVRNSRAEGQTLVQPSVANRAMRRVSSVPSRAQSPSYVISTGVSPSRGSLRTSLGSGFGSPSVTDPRPLNPSAYSSTTLPAARAASPYSQRPASPTAIRRIGSVTSRQTSNPNGPTPQYQTTARVGSPLTLTDAQTRVASPSQGQVGSSSPKRSGMTAVPQHLGPSLQRTVHDMEQFGQQQYDIYERMVPPRPDSLTGLRSSYASQHSQLGQDLRSAVSPDLHITPIYEGRTYYSPVYRSPNHGTVELQGSQTALYRTGSVGIGNLQRTSSQRSTLTYQRNNYALNTTATYAEPYRPIQYRVQECNYNRLQHAVPADDGTTRSPSIDSIQKDPREFAWRDPELPEVIHMLQHQFPSVQANAAAYLQHLCFGDNKVKMEVCRLGGIKHLVDLLDHRVLEVQKNACGALRNLVFGKSTDENKIAMKNVGGIPALLRLLRKSIDAEVRELVTGVLWNLSSCDAVKMTIIRDALSTLTNTVIVPHSGWNNSSFDDDHKIKFQTSLVLRNTTGCLRNLSSAGEEARKQMRSCEGLVDSLLYVIHTCVNTSDYDSKTVENCVCTLRNLSYRLELEVPQARLLGLNELDDLLGKESPSKDSEPSCWGKKKKKKKRTPQEDQWDGVGPIPGLSKSPKGVEMLWHPSVVKPYLTLLAESSNPATLEGSAGSLQNLSAGNWKFAAYIRAAVRKEKGLPILVELLRMDNDRVVSSVATALRNMALDVRNKELIGKYAMRDLVNRLPGGNGPSVLSDETMAAICCALHEVTSKNMENAKALADSGGIEKLVNITKGRGDRSSLKVVKAAAQVLNTLWQYRDLRSIYKKDGWNQNHFITPVSTLERDRFKSHPSLSTTNQQMSPIIQSVGSTSSSPALLGIRDPRSEYDRTQPPMQYYNSQGDATHKGLYPGSSKPSPIYISSYSSPAREQNRRLQHQQLYYSQDDSNRKNFDAYRLYLQSPHSYEDPYFDDRVHFPASTDYSTQYGLKSTTNYVDFYSTKRPSYRAEQYPGSPDSWV
# Variants of: B1
# Conditions: with scrib_human SCRIB
row,effect of a mutation on the interaction,Variant
1,disrupting interaction strength,T344E

# Variants of: B1
# Conditions: with dlg1_human DLG1, Q12959
# Target sequence in this assay (Q12959 whole entry, looked up): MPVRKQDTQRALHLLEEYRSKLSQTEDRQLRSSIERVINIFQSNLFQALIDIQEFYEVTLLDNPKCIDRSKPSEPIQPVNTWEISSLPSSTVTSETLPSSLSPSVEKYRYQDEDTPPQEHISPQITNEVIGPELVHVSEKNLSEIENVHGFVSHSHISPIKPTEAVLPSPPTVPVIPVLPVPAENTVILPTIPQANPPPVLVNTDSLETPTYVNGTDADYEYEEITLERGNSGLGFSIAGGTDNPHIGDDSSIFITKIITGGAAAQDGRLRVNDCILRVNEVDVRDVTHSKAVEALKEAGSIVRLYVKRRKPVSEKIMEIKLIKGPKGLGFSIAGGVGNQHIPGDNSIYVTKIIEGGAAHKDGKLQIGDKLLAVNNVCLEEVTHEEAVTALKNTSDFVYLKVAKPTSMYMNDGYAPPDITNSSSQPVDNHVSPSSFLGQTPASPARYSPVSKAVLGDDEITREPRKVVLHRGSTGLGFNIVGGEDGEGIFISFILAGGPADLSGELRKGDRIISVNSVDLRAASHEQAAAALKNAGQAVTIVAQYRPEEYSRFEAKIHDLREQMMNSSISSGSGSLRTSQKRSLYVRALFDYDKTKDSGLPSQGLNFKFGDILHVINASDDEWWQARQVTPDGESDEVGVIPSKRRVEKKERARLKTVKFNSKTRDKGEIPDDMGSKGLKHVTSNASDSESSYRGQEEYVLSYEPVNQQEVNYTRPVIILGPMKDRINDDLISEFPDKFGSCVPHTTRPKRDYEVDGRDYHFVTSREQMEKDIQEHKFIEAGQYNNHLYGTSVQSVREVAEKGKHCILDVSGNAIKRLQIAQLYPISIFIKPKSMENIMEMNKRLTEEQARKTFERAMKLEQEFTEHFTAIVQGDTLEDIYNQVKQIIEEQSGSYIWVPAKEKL
row,effect of a mutation on the interaction,Variant
1,disrupting interaction strength,T344E

# Variants of: B2
# Conditions: with scrib_human SCRIB
# Target sequence in this assay (Q14160 whole entry): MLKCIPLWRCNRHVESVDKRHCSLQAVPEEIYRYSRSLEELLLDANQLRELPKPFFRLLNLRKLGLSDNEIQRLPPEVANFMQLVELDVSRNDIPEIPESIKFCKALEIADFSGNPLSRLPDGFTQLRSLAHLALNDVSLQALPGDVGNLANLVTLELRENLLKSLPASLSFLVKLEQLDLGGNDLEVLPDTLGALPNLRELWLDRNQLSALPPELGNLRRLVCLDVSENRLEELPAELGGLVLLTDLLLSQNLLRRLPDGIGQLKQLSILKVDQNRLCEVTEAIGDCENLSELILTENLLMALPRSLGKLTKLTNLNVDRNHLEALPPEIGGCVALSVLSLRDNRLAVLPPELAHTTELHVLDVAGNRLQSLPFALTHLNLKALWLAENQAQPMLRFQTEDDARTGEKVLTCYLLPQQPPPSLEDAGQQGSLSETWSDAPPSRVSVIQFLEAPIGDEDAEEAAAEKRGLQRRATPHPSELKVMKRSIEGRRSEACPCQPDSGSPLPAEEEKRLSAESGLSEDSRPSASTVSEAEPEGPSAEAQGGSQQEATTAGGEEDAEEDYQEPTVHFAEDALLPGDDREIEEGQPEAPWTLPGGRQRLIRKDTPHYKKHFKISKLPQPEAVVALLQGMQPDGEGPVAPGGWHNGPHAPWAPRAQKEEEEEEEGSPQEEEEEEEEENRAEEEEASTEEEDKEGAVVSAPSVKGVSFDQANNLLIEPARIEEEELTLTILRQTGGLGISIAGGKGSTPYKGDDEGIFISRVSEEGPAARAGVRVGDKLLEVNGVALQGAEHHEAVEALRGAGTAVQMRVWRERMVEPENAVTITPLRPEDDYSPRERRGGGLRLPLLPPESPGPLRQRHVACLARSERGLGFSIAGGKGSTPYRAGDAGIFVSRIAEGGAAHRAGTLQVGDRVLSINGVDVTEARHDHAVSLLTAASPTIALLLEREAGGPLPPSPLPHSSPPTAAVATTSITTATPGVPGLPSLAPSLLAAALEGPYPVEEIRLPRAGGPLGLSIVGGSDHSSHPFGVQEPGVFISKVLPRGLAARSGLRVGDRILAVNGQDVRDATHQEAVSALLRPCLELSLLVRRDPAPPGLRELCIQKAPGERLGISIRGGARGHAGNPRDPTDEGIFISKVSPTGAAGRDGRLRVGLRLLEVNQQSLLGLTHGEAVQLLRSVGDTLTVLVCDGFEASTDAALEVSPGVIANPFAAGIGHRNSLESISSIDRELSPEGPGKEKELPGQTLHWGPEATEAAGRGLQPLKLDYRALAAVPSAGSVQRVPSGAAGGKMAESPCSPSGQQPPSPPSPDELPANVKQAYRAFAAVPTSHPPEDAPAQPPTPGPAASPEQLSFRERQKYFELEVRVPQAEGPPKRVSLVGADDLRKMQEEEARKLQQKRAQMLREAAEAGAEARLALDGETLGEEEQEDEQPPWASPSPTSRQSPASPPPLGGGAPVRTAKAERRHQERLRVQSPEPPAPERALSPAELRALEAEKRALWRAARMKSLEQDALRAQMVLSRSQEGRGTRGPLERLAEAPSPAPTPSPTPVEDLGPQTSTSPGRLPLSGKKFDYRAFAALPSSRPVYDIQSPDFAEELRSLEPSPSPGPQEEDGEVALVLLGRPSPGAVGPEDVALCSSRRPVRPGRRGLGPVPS
row,effect of a mutation on the interaction,Variant
1,causing an interaction,S358E

# Variants of: B3
# Conditions: with dlg1_human DLG1, Q12959
# Target sequence in this assay (Q12959 whole entry, looked up): as the sequence (Q12959 whole entry, looked up) above
row,effect of a mutation on the interaction,Variant
1,with no effect,S457E

# Variants of: B4
# Conditions: with dlg1_human DLG1, Q12959
# Target sequence in this assay (Q12959 whole entry, looked up): as above
row,effect of a mutation on the interaction,Variant
1,increasing interaction strength,S523E

# Variants of: B5
# Conditions: with scrib_human SCRIB
# Target sequence in this assay (Q14160 whole entry): as the sequence (Q14160 whole entry) above
row,effect of a mutation on the interaction,Variant
1,with no effect,S1213E

# Variants of: B6
# Conditions: with scrib_human SCRIB
# Target sequence in this assay (Q14160 whole entry): as above
row,effect of a mutation on the interaction,Variant
1,with no effect,S464E

# Variants of: B7
# Conditions: with dlg1_human DLG1, Q12959
# Target sequence in this assay (Q12959 whole entry, looked up): as the sequence (Q12959 whole entry, looked up) above
row,effect of a mutation on the interaction,Variant
1,disrupting interaction strength,S1190E
